Reference: patent publication US20110020833A1
Where no end group is shown, it is not given here.

Molecular target: BSA+oligo-Lys conjugate (oligo-Lys peptide K14C coupled to bovine serum albumin) (bovine) (UniProt P02769)
Test: MACN-labeled peptide in plasma matrix, 30 min in tubes coated with oligo-Lys-BSA to which the oligo-Asp-anti-PCT antibody was bonded; luminometer

Chain of UniProt P02769 (P02769 25-607, stated change not applied): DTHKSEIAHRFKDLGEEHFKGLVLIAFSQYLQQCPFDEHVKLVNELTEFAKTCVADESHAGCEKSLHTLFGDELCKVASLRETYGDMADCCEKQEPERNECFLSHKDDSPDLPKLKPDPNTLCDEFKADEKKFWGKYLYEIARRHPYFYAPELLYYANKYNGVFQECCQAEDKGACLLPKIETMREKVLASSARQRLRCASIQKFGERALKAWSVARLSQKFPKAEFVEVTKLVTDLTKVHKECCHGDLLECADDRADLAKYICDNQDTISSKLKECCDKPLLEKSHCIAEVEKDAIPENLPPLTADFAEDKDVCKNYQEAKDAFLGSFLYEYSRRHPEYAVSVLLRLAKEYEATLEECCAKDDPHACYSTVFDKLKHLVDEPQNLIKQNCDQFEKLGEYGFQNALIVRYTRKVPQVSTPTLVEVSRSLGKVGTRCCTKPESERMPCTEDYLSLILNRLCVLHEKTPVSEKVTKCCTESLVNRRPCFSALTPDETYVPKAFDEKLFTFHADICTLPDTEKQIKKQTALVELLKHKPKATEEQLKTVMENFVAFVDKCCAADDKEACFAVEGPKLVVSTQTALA

Binder | percentage of non-specific binding relative to the total activity [%]
ELRMSSSYPTGLADVKAGPAQTLIRPQDMKGASRSPEDSSPDAARIRV (also: MACN acridinium label, site not given here) [MACN-labeled Peptide 45-92 (derived from pro-adrenomedullin)] | 2.9
ATQLDGPAGALLLRLVQLAGAPEPFEPAQPDAY (also: MACN acridinium label, site not given here) [MACN-labeled peptide PAY33 (derived from copeptin)] | 6.5
SSEEHLRQTRSETMRNSVKSSFHDPKLKGKPSRERYVTHNRAHW (also: MACN acridinium label, site not given here) [MACN-labeled peptide PSW44 (derived from proEndothelin)] | 3
PEVPPWTGEVSPAQRDGGALGGGGRGPWDSSDRSALLKSKL (also: MACN acridinium label, site not given here) [MACN-labeled peptide PPL41 (derived from NT-proANP)] | 3.1
